Experimental data from patent US8470587B2, “129Xe biosensors and their use” (The Trustees of the University of Pennsylvania, priority 2006, dated 2013).
Where “and” joins values, the source holds several entries; their conditions need not be identical. Equal entries are not always repeated. Where two headings read alike, the source gives them in different places. * marks the point of attachment. monopropargyl‑cryptophane‑A = monopropargyl-cryptophane-A, coupled to the azido-peptide by Cu(I)-mediated coupling; 3‑azidopropionyl = [N-]=[N+]=NCCC(=O)*

What was measured:
[1] = test system: Trp-containing hexapeptide LWRSRK 3; assay: Stern-Volmer fluorescence quenching of hexapeptide 3 by cleaved biosensor II; assay type: binding; conditions: 3 at 16 μM, II 0-120 μM, 298 K, standard buffer; listed as II
Method: Solution of 3 was titrated with 3.18 mM II, to achieve concentrations of II between 0 and 120 μM. Steady-state fluorescence measurements found the ratio of initial fluorescence, F0, to observed fluorescence, F, at each quencher concentration. The linear fit gave an R^2 value of 0.88, which indicated a dominant static quenching mechanism. The slope of this line gave the association constant, KS=9000 M^−1, for the II-3 complex.
Having ruled out a prevalent role for intra- and intermolecular interactions within or between biosensors, we sought further to explain the decrease in Trp fluorescence upon enzymatic cleavage. […] To examine this quenching mechanism, the steady-state fluorescence intensity of the hexapeptide LWRSRK 3 was measured as a function of the cleaved sensor II (putative quencher) concentration in standard buffer. This Stern-Volmer experiment could only be performed within a limited range of II concentrations, due to limitations in the quantity of material and the contribution of this compound to total fluorescence. […] All fluorescence spectra were corrected to remove contributions from cryptophane. The resulting fluorescence maximum at 358 nm, which corresponded to Trp emission of I, decreased with successive additions of II. […]

[2] = concentration dependence of fluorescence intensity (aggregation); assay type: physicochemical; conditions: fluorescence intensity linear over 1-250 μM, standard buffer
Method: Solutions were at room temperature in standard buffer. The fluorescence intensity for each compound at a given wavelength and concentration was normalized to its value at the maximum biosensor concentration, in order to facilitate comparison and show linearity over a large concentration range.
Experiments were performed to identify the important contributions to the observed Trp fluorescence quenching. In the fully extended biosensor I (FIG. 1) cryptophane and Trp were separated by approximately 40 Å. Temperature dependence studies identified little contribution to Trp quenching from the cryptophane within the intact biosensor I. The observed decrease in Trp fluorescence at elevated temperatures (λem=358 nm, F/F0=0.3 at 353 K) was virtually identical to that seen with the Trp-containing hexapeptide 3, and was thus attributed to temperature-dependent solvent quenching by non-radiative decay processes. […] This was confirmed with I and II by comparing the concentration dependence of fluorescence intensity (λex=295 nm, λem=318 nm for cryptophane and λem=358 nm for Trp), after correcting for inner filter effects and dilution. Neither compound's fluorescence intensity deviated from linearity over the concentration range, 1-250 μM (FIG. 8). The absorption and fluorescence maxima were unchanged over this range.

[3] = molecular target: T1, MMP-7 (Homo sapiens, UniProt P09237); conditions: reported previously at 303 K; cited from earlier work
T1 construct: BIOMOL International LP, MMP-7 (recombinant, catalytic domain); purchased BIOMOL International LP
T1 sequence (P09237 95-267): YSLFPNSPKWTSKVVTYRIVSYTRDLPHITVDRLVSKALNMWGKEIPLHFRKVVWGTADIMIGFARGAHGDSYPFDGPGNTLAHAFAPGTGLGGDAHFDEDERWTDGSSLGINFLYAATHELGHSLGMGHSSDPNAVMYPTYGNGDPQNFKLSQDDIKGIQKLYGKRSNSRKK

[4] = molecular target: T1, MMP-7; assay: MMP-7 enzyme kinetic parameters, Michaelis-Menten fit of initial velocities; assay type: biochemical
Method: (§1) At rt, an aliquot (2 μL) of active MMP-7 (0.454 μg/μL) was added into 0.998 mL of a freshly prepared solution of biosensor I at a known concentration in standard buffer. The extinction coefficient of I, ε=15,000 M^−1 cm^−1 at 280 nm in water, was determined from a solution containing the weighed sample. At approximately 3 min intervals, 70 μL aliquots were removed from the reaction mixture and immediately quenched with 30 μL of a 40 mM EDTA solution. Each aliquot was analyzed by HPLC with the gradient: time 0, A/B=75/25; 0-30 min, linear increase to A/B=45/55; 30-32 min, linear change to A/B=20/80; 32-42 min, A/B=20/80. The retention times for I and II were 15.6 min and 17.9 min, respectively. The enzyme activity was determined from the initial rate of increase in the concentration of cleaved sensor II, during the consumption of the first 10-15% of substrate I. The absorbance at 280 nm of the growing peak at 17.9 min was integrated and compared for each time point. Initial velocities were measured at substrate I concentrations of 6, 16, 28, 38, 48, 74 and 100 μM.
(§2) The kcat/KM value for all peptide substrates was calculated based on the Michaelis-Menten equation (Equation 1) after fitting the activity data at varying substrate concentrations with a non-linear regression curve: […]
(§3) For the azidopeptide substrate 1, enzyme activity was determined similarly by HPLC with the gradient: time 0, A/B=90/10; 0-30 min, linear increase to A/B=60/40; 30-32 min, linear change to A/B=20/80; 32-42 min, A/B=20/80. Peak areas were monitored for the intact substrate 1 and cleaved hexapeptide product 3 at retention times of 17.0 and 10.3 min, respectively. Initial velocities were measured at substrate 1 concentrations of 6, 50, 100, and 870 μM.
(§4) For the fluorometric enzymatic assay, an aliquot (2 μL) of active MMP-7 (0.454 μg/μL) was added into 0.998 mL solution of ^129Xe biosensor I with known concentration at 298 K. Fluorescence spectra were collected from 310-450 nm. […]

[5] = molecular target: T1, MMP-7; assay: MMP-7 enzymatic assay monitored by HPLC (UV-vis); assay type: biochemical
Method: as §1, §3
The ability of MMP-7 to hydrolyze ^129Xe biosensor I was initially confirmed by HPLC analysis (FIG. 3a). A standard assay was performed by incubating a 1 mL reaction mixture of 32 nmol I and 42 pmol MMP-7 at 310 K. Reaction progress was monitored by analyzing aliquots of the reaction mixture at regular intervals. […] MALDI-TOF mass spectrometry identified these new peaks as the cleaved hexapeptide LWRSRK 3 and cryptophane-peptide product II, respectively. The peptide cleavage pattern agreed with previous assays using this substrate. […]

[6] = molecular target: T1, MMP-7; assay: fluorometric MMP-7 enzymatic assay (Trp fluorescence); assay type: biochemical
Method: Fluorescence spectra of I and II dissolved in standard buffer (λex=295 nm) were measured in small volume, 1-cm pathlength quartz cuvettes at 298 K using a Varian Cary Eclipse fluorescence spectrophotometer operated with the Cary Eclipse Bio software package (1 nm steps, 5 nm excitation and emission slits). Kinetics data were collected at 30 s intervals using the same software on samples with controlled temperature and stirring.
For the fluorometric enzymatic assay, an aliquot (2 μL) of active MMP-7 (0.454 μg/μL) was added into 0.998 mL solution of ^129Xe biosensor I with known concentration at 298 K. Fluorescence spectra were collected from 310-450 nm. All reported fluorescence data are uncorrected and are roughly 5 nm red-shifted from the values obtained when the instrumental correction feature is employed. Trp fluorescence at 400 nm was analyzed as a function of time, since there was little contribution at this wavelength from monopropargyl-cryptophane-A fluorescence. The enzyme activity was calculated from the initial rate of decrease in Trp emission at 400 nm, over the time interval that corresponded to the first 10-15% completion of the reaction. The kcat/KM value for biosensor I was calculated by non-linear regression of the activity data by varying the biosensor concentration from 6-100 μM; double-reciprocal 1/v versus 1/[S] Lineweaver-Burk plots^49 gave a similar kcat/KM value.
In enzyme kinetics studies, the fluorescence spectrum of I was taken at 30 s intervals after addition of MMP-7 (FIG. 7b). A continuous decrease of Trp emission was observed. The change in fluorescence intensity at 400 nm was used to calculate the initial velocity (v) of the enzyme reaction. The v values determined by HPLC and fluorometric methods were in excellent agreement (Table 1), which validated using the fluorometric assay to monitor this enzyme reaction. The Trp fluorescence assays were easier to run, allowed continuous monitoring of the reaction, provided greater sensitivity, and required less material than HPLC-based UV-vis absorbance measurements.

[7] = molecular target: T2, azidopeptide N3-CH2CH2-CONH2-RKRPLALWRSRK
T2 chain: RKRPLALWRSRK

[8] = molecular target: T3, MMP-7-responsive 129Xe biosensor I (monopropargyl-cryptophane-A coupled to azidopeptide RKRPLALWRSRK)
T3 chain: RKRPLALWRSRK

[9] = substrate: CC(C)C[C@H](NC(=O)[C@H](C)NC(=O)[C@H](CC(C)C)NC(=O)[C@@H]1CCCN1C(=O)[C@H](CCCNC(=N)N)NC(=O)[C@H](CCCCN)NC(=O)[C@H](CCCNC(=N)N)NC(=O)CCN=[N+]=[N-])C(=O)N[C@@H](Cc1c[nH]c2ccccc12)C(=O)N[C@@H](CCCNC(=N)N)C(=O)N[C@@H](CO)C(=O)N[C@@H](CCCNC(=N)N)C(=O)N[C@@H](CCCCN)C(=O)O; assay: MMP-7 enzyme kinetic parameters, Michaelis-Menten fit of initial velocities; assay type: biochemical; conditions: other: MMP-7 42 nM, 298 K, standard buffer
Method: as §1, §2, §3, §4

[10] = molecular target: T4, hexapeptide LWRSRK; assay: Stern-Volmer steady-state Trp fluorescence quenching; hexapeptide 3 (16 µM) titrated with II (0-120 µM), 298 K, standard buffer
T4 sequence (peptide): LWRSRK

[11] = MMP-7 42 nM, 298 K, standard buffer

Biosensor II: monopropargyl-cryptophane-A 7 coupled to azidopeptide 2 (RKRPLA); MMP-7 cleaved product of I ({monopropargyl‑cryptophane‑A-3‑azidopropionyl (triazole link)}-RKRPLA-OH)
association constant KS of the II-3 complex [1]: 9000 ± 1000 M⁻¹ and 9000 M⁻¹ | aggregation in solution [2]: unlikely to aggregate

dinitrophenyl-Arg-Pro-Leu-Ala-Leu-Trp-Arg-Ser
Km [3]: 26 µM

Biosensor I: monopropargyl-cryptophane-A 7 coupled by [3+2] cycloaddition to azidopeptide 1 (RKRPLALWRSRK); MMP-7-responsive 129Xe biosensor ({monopropargyl‑cryptophane‑A (triazole via Cu(I) (3+2) cycloaddition)-3‑azidopropionyl}-RKRPLALWRSRK-OH)
fold lower Vmax relative to substrate 1 [4]: 3.6 fold | Km [4, 11]: 43 µM | Vmax [4, 11]: 1.3e-08 M/s | Initial velocity, HPLC assay ([5]; Biosensor I 6 μM): 1 pmol/s | Initial velocity, HPLC assay ([5]; Biosensor I 50 μM): 10 pmol/s | Initial velocity, HPLC assay ([5]; Biosensor I 100 μM): 7 pmol/s | Initial velocity, fluorometric assay ([6]; Biosensor I 6 μM): 0.9 pmol/s | Initial velocity, fluorometric assay ([6]; Biosensor I 50 μM): 9 pmol/s | Initial velocity, fluorometric assay ([6]; Biosensor I 100 μM): 8 pmol/s | aggregation in solution [2]: unlikely to aggregate

B1: MMP-7 (Homo sapiens) (protein)
chain: YSLFPNSPKWTSKVVTYRIVSYTRDLPHITVDRLVSKALNMWGKEIPLHFRKVVWGTADIMIGFARGAHGDSYPFDGPGNTLAHAFAPGTGLGGDAHFDEDERWTDGSSLGINFLYAATHELGHSLGMGHSSDPNAVMYPTYGNGDPQNFKLSQDDIKGIQKLYGKRSNSRKK
notes: BIOMOL International LP, MMP-7 (recombinant, catalytic domain); purchased BIOMOL International LP
KM [7]: 150 µM | Vmax [7]: 4.7e-08 M/s | kcat/KM [7]: 7300 M⁻¹ s⁻¹ | KM [8]: 43 µM | Vmax [8]: 1.3e-08 M/s | initial velocity v of proteolysis of biosensor I by MMP-7 (42 nM), fluorometric assay, 298 K; shown without a printed number [8]: v rises with [Biosensor I] from about 1 nM s-1 at about 6 µM to about 8-9 nM s-1 at 74-100 µM; the Michaelis-Menten fit line is still rising at 100 µM, no upper plateau inside the range | kcat/KM [8]: 7200 M⁻¹ s⁻¹ | Km [9]: 150 µM | Vmax [9]: 2.82 µM/min | kcat/Km [9]: 7300 M⁻¹ s⁻¹

B2: cleaved biosensor II (monopropargyl-cryptophane-A coupled to azidopeptide RKRPLA) (peptide)
peptide: {monopropargyl‑cryptophane‑A (via triazole, CuAAC)-3‑azidopropionyl}-RKRPLA-OH
Ka [10]: 9000 M⁻¹
